Test results as given in US20100076060, “Aptamers as agonists” (DUKE UNIVERSITY, published 2010).

T1: OX40 (CD134) (Mus musculus, UniProt P47741 P47741:20-211)
T1 sequence: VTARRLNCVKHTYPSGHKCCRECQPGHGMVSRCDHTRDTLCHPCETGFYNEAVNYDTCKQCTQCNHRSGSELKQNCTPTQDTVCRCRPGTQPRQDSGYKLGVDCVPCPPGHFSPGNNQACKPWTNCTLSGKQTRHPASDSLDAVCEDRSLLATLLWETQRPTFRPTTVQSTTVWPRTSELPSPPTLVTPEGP

B1: OX40 aptamer SEQ 80 (ssRNA)
RNA: GGGAGGACGAUGCGGCAAACCAGCUAUUUCCUGAGGUACCCCGGCUCUCCAUGGCAGACGACUCGCUGAGGAUCCGAGA
modifications: 2'-F pyrimidines, 2'-OH purines
B2: OX40 aptamer SEQ 84 (ssRNA)
RNA: GGGAGGACGAUGCGGCAACCCAUCCAUACCAACAUGGAGCUAAUGUUAGUCAACGCAGACGACUCGCUGAGGAUCCGAGA
modifications: 2'-F pyrimidines, 2'-OH purines
B3: OX40 aptamer SEQ 79 (ssRNA)
RNA: GGGAGGACGAUGCGGCUUUAAUCCUCGCACUCAGCGCGCAUCACCCUUGACAUCACAGACGACUCGCUGAGGAUCCGAGA
modifications: 2'-F pyrimidines, 2'-OH purines
B4: OX40 aptamer SEQ 77 (ssRNA)
RNA: GGGAGGACGAUGCGGCAGUCUGCAUCGUAGGAAUCGCCACCGUAUACUUUCCCACCAGACGACUCGCUGAGGAUCCGAGA
modifications: 2'-F pyrimidines, 2'-OH purines
B5: OX40 aptamer SEQ 85 (ssRNA)
RNA: GGGAGGACGAUGCGGCACUAACUCCAGCGACUCCAUCGCCAUUCCAACUCUACGCCAGACGACUCGCUGAGGAUCCGAGA
modifications: 2'-F pyrimidines, 2'-OH purines
B6: OX40 aptamer SEQ 86 (ssRNA)
RNA: GGGAGGACGAUGCGGCCGUCAACCAAUCUCUCGCUUCACACGGCCAUGCCUCCAUCAGACGACUCGCUGAGGAUCCGAGA
modifications: 2'-F pyrimidines, 2'-OH purines
B7: OX40 aptamer SEQ 82 (ssRNA)
RNA: GGGAGGACGAUGCGGCUUUUGAAUGCUCCCUUCACUCCAAGCGGCAGCCUAUCGUCAGACGACUCGCUGAGGAUCCGAGA
modifications: 2'-F pyrimidines, 2'-OH purines
B8: OX40 aptamer SEQ 83 (ssRNA)
RNA: GGGAGGACGAUGCGGAUACCACCUAGUGUGAGGAACCCCGCUUCCUAGACUGCGCAGACGACUCGCUGAGGAUCCGAGA
modifications: 2'-F pyrimidines, 2'-OH purines
B9: OX40 aptamer SEQ 78 (ssRNA)
RNA: GGGAGGACGAUGCGGAUACCAGGAUCACAUCCUGAGGAACCCCGGCUCCCAACCUCAGACGACUCGCUGAGGAUCCGAGA
modifications: 2'-F pyrimidines, 2'-OH purines
B10: OX40 aptamer SEQ 81 (ssRNA)
RNA: GGGAGGACGAUGCGGAUACCAGCGAAUAACUCGCUGAGGAACCCGACUCACAAACAGACGACUCGCUGAGGAUCCGAGA
modifications: 2'-F pyrimidines, 2'-OH purines

biological target: T1, OX40 (CD134); test: filter; 20 mM Hepes pH 7.4, 150 mM NaCl, 2 mM CaCl2; Kd not given; details: tags: human IgG Fc fusion; chain copies: 2; label: 5' 32P
Method: Eleven rounds of selection were performed with increasing stringency throughout the selection process by increasing the RNA: OX40 protein ratio in the selection reaction. Aptamers from rounds 9 and 11 DNA were cloned into a plasmid vector, and single colonies were sequenced and amplified by low cycle PCR amplification following by in vitro transcription. Binding constants for the clones were determined using filter-binding assays in a buffer composed of 20 mM Hepes pH 7.4, 150 mM NaCl, 2 mM CaCl2. To determine the affinities of monomeric aptamers (e.g., which may be expressed as Kd or dissociation constant), serial dilutions of murine OX40 IgG Fc fusion protein, human IgG1, or protein G were incubated with monomeric 5′ ³²P radiolabeled aptamers at 2000 cpm/μL. The mixture was passed over a stack of membranes consisting of a nitrocellulose membrane and nylon membrane through application of a vacuum. The membranes were exposed to a phosphoimager screen, scanned and quantitated using a phosphoimager. Finally, differential fractions of RNA bound were calculated and graphed using commercially available software, and affinity was then expressed as Kd. The predicted secondary structure of the resultant nucleic acid aptamers was determined by utilizing the algorithm m-fold using default settings for folding parameters. Illustrative examples of the nucleic acid aptamers isolated from the aforementioned selections against OX40 are shown in Table 2; wherein nucleic acid sequences comprising SEQ ID NOs: […] represent the variable regions from clones with binding specificity to OX40; and a nucleic acid sequence comprising SEQ ID:87 represents the RNA library constant regions, with a constant region (e.g., nucleic acid bases in positions 1-41 of […]) flanking the 5′ end of the variable regions, a constant region (e.g., nucleic acid bases in positions 82-106 of SEQ ID NO:87) flanking the 3′end of the variable regions, and the variable regions being designated by N(40) in Table 2 (nucleic acid bases in positions 42-81 of SEQ ID NO:87). It is understood by those skilled in the art that the variable regions may be flanked by constant regions other than those comprising the constant regions depicted in SEQ ID NO: 87, while still retaining binding activity for OX40.

Binding result, binds:
B1, B2, B3, B4, B5, B6, B7, B8, B9, B10
